The target in test [1] is T1, human folate receptor alpha (hFRα), recombinant protein (human, UniProt P15328 25-233).
T1 construct: Bought recombinant proteins (His-tagged, or biotinylated via Avi-tag, e.g. AcroBiosystems FO1-H82E2, F01-H52H1); also called hFOLR1; huFOLR1
The test is described as follows: BLI. An outline of the steps: (§1)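 Biotinylated human and mouse folate receptor alpha were immobilised on streptavidin biosensors, and off-rates were read by biolayer interferometry, with a 1:1 binding model applied in the calculation. Each variant's koff is expressed as a signed fold change relative to its wild-type VHH, positive as wild-type over variant for a better off-rate and negative as variant over wild-type for a worse one.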
For orientation: BLI is a label-free optical method that tracks binding on a fibre tip over time.

The target in test [2] is T2, mouse folate receptor alpha (mFRα), recombinant protein (mouse, UniProt P35846 25-232).
T2 construct: Bought recombinant proteins (e.g. biotinylated, Acro Biosystems FO1-M82E9); also called mFOLR1; Ms FOLR1
The test is described as follows: BLI. An outline of the steps: as §1

Test [3] concerns the target T1, human folate receptor alpha (hFRα), …. The test is described as follows: BLI, biotinylated FOLR1 on streptavidin biosensors. The procedure: (§2) The off-rates of the 2HFO9 ^{∘}FIG. 5A) and 2MFR67 ^{∘}FIG. 5B) mutants and the three wild-type ^{∘}WT) VHHs from family 3 were determined by biolayer interferometry ^{∘}BLI) on both mouse and human biotinylated folate receptor alpha ^{∘}FOLR1) that was immobilized on streptavidin biosensors. The off-rates were calculated using a 1:1 binding model. The fold change compared to the off-rates of the corresponding WT VHH is represented as the WT VHH off-rate divided by the off-rate of the mutant for the VHHs that show an improved off-rate compared to the WT. For the VHHs that show a worse off-rate compared to the WT, the fold change is represented as the negative value of the mutant VHH off-rate divided by the WT off-rate. The red bars represent the WT 2HFO9 and 2MFR67 in the upper and lower panel respectively.

Test [4] has as its target T2, mouse folate receptor alpha (mFRα), …. Briefly: BLI, biotinylated FOLR1 on streptavidin biosensors. The protocol:
as §2

In test [5] the target is T1, human folate receptor alpha (hFRα), …. The test is described as follows: BLI off-rate screening, crude periplasmic extract, biotinylated human FRα on streptavidin biosensors. The protocol:
(§3) Non-redundant clones were tested as crude periplasmatic extracts for binding analysis to human FRα and mouse FRα proteins captured on streptavidin biosensors in BLI. Variants P0150001 and P0150005 grown in the same 96-well plates were included as controls.

Test [6] concerns the target T2, mouse folate receptor alpha (mFRα), …. Briefly: BLI off-rate screening, crude periplasmic extract, biotinylated mouse FRα on streptavidin biosensors. The procedure:
as §3

The values below come from US20250304677A1 (VIB VZW, published 2025).

One may read the koff as the rate constant with which the complex falls apart.

T1 sequence (P15328 25-233 limits assumed): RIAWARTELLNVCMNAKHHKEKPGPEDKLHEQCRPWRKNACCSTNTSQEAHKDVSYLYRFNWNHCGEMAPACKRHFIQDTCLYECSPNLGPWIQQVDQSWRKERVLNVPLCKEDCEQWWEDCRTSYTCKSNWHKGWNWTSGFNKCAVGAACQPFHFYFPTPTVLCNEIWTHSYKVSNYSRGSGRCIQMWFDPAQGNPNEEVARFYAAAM
T2 sequence (P35846 25-232 limits assumed): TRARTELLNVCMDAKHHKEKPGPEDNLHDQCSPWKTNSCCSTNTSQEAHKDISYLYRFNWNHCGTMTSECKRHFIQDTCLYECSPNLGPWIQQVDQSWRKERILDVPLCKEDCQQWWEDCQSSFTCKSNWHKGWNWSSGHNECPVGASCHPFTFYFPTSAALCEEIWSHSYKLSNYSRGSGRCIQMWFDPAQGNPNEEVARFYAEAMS

B1: P01500012: P0150001 with M32I (VHH)
VHH: EVQLVESGGGLVQPGGSLRLSCAASGSGFSGIIMGWYRQAPGKQRELVATVTSHGTTNYADSVKGRFTISRDNAKNTVYLQMNSLRPEDTAVYYCNAHFPGIYWGKGTLVTVSS
notes: Entry carries a His6 tag
Regarding B1, the koff in test [1] turned out to be 0.0712 s⁻¹; in test [2], 0.00762 s⁻¹. Further, the “nm (Fold wt)” value was 5.4 in test [1] and 4.7 in test [2].

B2: 2MFR67 (E72D, D72N, S74A)-NT (VHH, not shown: small tags and cut ends)
VHH: QVQLQESGGGLVQAGGSLRLSCAASGSGFSGMIMGWYRQAPGKQRELVATVTSHGTTNYADSVKGRFTISRDNAKNTVLLQMNSLKPEDTAVYYCNAHFPGIYWGKGTQVTVSS
notes: Second substitution printed D72N; also called 2MFR67 triple mutant
B2: in test [3], the “Fold hu/ms (koff)” value turned out to be 7, the “Fold to WT (koff)” value was determined as 2.9 and the koff came out at 0.0173 s⁻¹. In addition, in test [4], the “Fold to 2HF042 (koff)” value is 0.9, the “Fold to WT (koff)” value amounted to 2.6 and the off-rate constant (koff) is 0.00258 s⁻¹.

B3: 2HFO9 (I51V,G54H)-NT (VHH)
VHH: QVQLQESGGGLVQAGGSLRLSCAASGSGFSGMIMGWYRQAPGKQRELVATVTSHGTTNYADSVKGRFTISRDNAKNTVLLQMNSLKPEDTAVYYCNAHFPGIYWGKGTQVTVSS
notes: not shown: neurotensin tridecapeptide (NT) and any linker or tags of the fusion
As to B3, in test [3], the “Fold hu/ms (koff)” value was 6, the “Fold to WT (koff)” value is 0.7 and the koff was 0.0145 s⁻¹. In test [4], the “Fold to 2HF042 (koff)” value came out at 0.9, the “Fold to WT (koff)” value amounted to 0.3 and the koff is 0.00236 s⁻¹.

B4: [N73G] (VHH)
VHH: EVQLVESGGGLVQPGGSLRLSCAASGSGFSGMIMGWYRQAPGKQRELVATVTSHGTTNYADSVKGRFTISRDGAKNTVYLQMNSLRPEDTAVYYCNAHFPGIYWGKGTLVTVSS
notes: library clone tested as crude periplasmic extract; also called P01500001[N73G]
B4: the binding result in test [5] and in test [6] was “binds” each time.

B5: P01500085: P0150001 with A24V, S27L, M32P (VHH)
VHH: EVQLVESGGGLVQPGGSLRLSCAVSGLGFSGPIMGWYRQAPGKQRELVATVTSHGTTNYADSVKGRFTISRDNAKNTVYLQMNSLRPEDTAVYYCNAHFPGIYWGKGTLVTVSS
On to B5, for which, in test [1], the dissociation rate constant (koff) stood at 0.0159 s⁻¹ and the “nm (Fold wt)” value was determined as 1.2. Also, in test [2], the koff worked out at 0.00176 s⁻¹ and the “nm (Fold wt)” value amounted to 1.1.

B6: P01500088: P0150001 with S27T, M32I (VHH)
VHH: EVQLVESGGGLVQPGGSLRLSCAASGTGFSGIIMGWYRQAPGKQRELVATVTSHGTTNYADSVKGRFTISRDNAKNTVYLQMNSLRPEDTAVYYCNAHFPGIYWGKGTLVTVSS
On to B6, for which the off-rate constant (koff) was found to be 0.381 s⁻¹ in test [1] and 0.0154 s⁻¹ in test [2]. The “nm (Fold wt)” value in test [1] was found to be 29; in test [2], 9.4.

B7: [D72P] (VHH)
VHH: EVQLVESGGGLVQPGGSLRLSCAASGSGFSGMIMGWYRQAPGKQRELVATVTSHGTTNYADSVKGRFTISRPNAKNTVYLQMNSLRPEDTAVYYCNAHFPGIYWGKGTLVTVSS
notes: library clone tested as crude periplasmic extract; also called P01500001[D72P]
Turning to B7, the binding result in test [5] and in test [6] was “binds” in each case.

B8: [I33L] (VHH)
VHH: EVQLVESGGGLVQPGGSLRLSCAASGSGFSGMLMGWYRQAPGKQRELVATVTSHGTTNYADSVKGRFTISRDNAKNTVYLQMNSLRPEDTAVYYCNAHFPGIYWGKGTLVTVSS
notes: library clone tested as crude periplasmic extract; also called P01500001[I33L]
In the case of B8, the binding result in test [5] and in test [6] was “binds” in each case.

B9: P01500087: P0150001 with A24L, S27A, M32P, N67E (VHH)
VHH: EVQLVESGGGLVQPGGSLRLSCALSGAGFSGPIMGWYRQAPGKQRELVATVTSHGTTNYADSVKGRFTISRDNAKETVYLQMNSLRPEDTAVYYCNAHFPGIYWGKGTLVTVSS
Regarding B9, in test [1], the koff was 0.0269 s⁻¹ and the “nm (Fold wt)” value amounted to 2. Moreover, in test [2], the off-rate constant (koff) stood at 0.00376 s⁻¹ and the “nm (Fold wt)” value stood at 2.3.

B10: [D72E] (VHH)
VHH: EVQLVESGGGLVQPGGSLRLSCAASGSGFSGMIMGWYRQAPGKQRELVATVTSHGTTNYADSVKGRFTISRENAKNTVYLQMNSLRPEDTAVYYCNAHFPGIYWGKGTLVTVSS
notes: library clone tested as crude periplasmic extract; also called P01500001[D72E]
With B10, the binding result in test [5] and in test [6] was “binds” in each case.

B11: P01500086: P0150001 with A24L, S27A, M32P (VHH)
VHH: EVQLVESGGGLVQPGGSLRLSCALSGAGFSGPIMGWYRQAPGKQRELVATVTSHGTTNYADSVKGRFTISRDNAKNTVYLQMNSLRPEDTAVYYCNAHFPGIYWGKGTLVTVSS
As for B11, the koff was 0.024 s⁻¹ in test [1] and 0.0035 s⁻¹ in test [2]. Further, the “nm (Fold wt)” value in test [1] was 1.8; in test [2], 2.1.

B12: P01500089: P0150001 with S27T, M32I, N76D (VHH)
VHH: EVQLVESGGGLVQPGGSLRLSCAASGTGFSGIIMGWYRQAPGKQRELVATVTSHGTTNYADSVKGRFTISRDNAKDTVYLQMNSLRPEDTAVYYCNAHFPGIYWGKGTLVTVSS
As to B12, in test [1], the off-rate constant (koff) came out at 0.0747 s⁻¹ and the “nm (Fold wt)” value came out at 5.7. In test [2], the koff came to 0.00614 s⁻¹ and the “nm (Fold wt)” value is 3.8.

B13: P01500084: P0150001 with A24V, S27T, M32I, N76D (VHH)
VHH: EVQLVESGGGLVQPGGSLRLSCAVSGTGFSGIIMGWYRQAPGKQRELVATVTSHGTTNYADSVKGRFTISRDNAKDTVYLQMNSLRPEDTAVYYCNAHFPGIYWGKGTLVTVSS
For the molecule B13, in test [1], the koff is 0.0336 s⁻¹ and the “nm (Fold wt)” value was found to be 2.5. Also, in test [2], the off-rate constant (koff) was determined as 0.00649 s⁻¹ and the “nm (Fold wt)” value worked out at 4.

B14: [I33F] (VHH)
VHH: EVQLVESGGGLVQPGGSLRLSCAASGSGFSGMFMGWYRQAPGKQRELVATVTSHGTTNYADSVKGRFTISRDNAKNTVYLQMNSLRPEDTAVYYCNAHFPGIYWGKGTLVTVSS
notes: library clone tested as crude periplasmic extract; also called P01500001[I33F]
In the case of B14, the binding result in test [5] and in test [6] was “binds” each time.

B15: [G28T] (VHH)
VHH: EVQLVESGGGLVQPGGSLRLSCAASGSTFSGMIMGWYRQAPGKQRELVATVTSHGTTNYADSVKGRFTISRDNAKNTVYLQMNSLRPEDTAVYYCNAHFPGIYWGKGTLVTVSS
notes: library clone tested as crude periplasmic extract; also called P01500001[G28T]
For B15, the binding result in test [5] and in test [6] was “binds” in each case.

B16: [G28P] (VHH)
VHH: EVQLVESGGGLVQPGGSLRLSCAASGSPFSGMIMGWYRQAPGKQRELVATVTSHGTTNYADSVKGRFTISRDNAKNTVYLQMNSLRPEDTAVYYCNAHFPGIYWGKGTLVTVSS
notes: library clone tested as crude periplasmic extract; also called P01500001[G28P]
As for B16, the binding result in test [5] and in test [6] was “binds” in each case.

B17: 2HFO9(I51V)-NT (VHH)
VHH: QVQLQESGGGLVQAGGSLRLSCAASGSGFSGMIMGWYRQAPGKQRELVATVTSGGTTNYADSVKGRFTISRDNAKNTVLLQMNSLKPEDTAVYYCNAHFPGIYWGKGTQVTVSS
notes: as for B3
In the case of B17, in test [3], the “Fold hu/ms (koff)” value came to 2, the “Fold to WT (koff)” value is 1 and the koff worked out at 0.0205 s⁻¹. Moreover, in test [4], the “Fold to 2HF042 (koff)” value is 0.2, the “Fold to WT (koff)” value turned out to be 1.8 and the dissociation rate constant (koff) turned out to be 0.012 s⁻¹.

B18: P01500090: P0150001 with A24V, S27L, M32P, N67E (VHH)
VHH: EVQLVESGGGLVQPGGSLRLSCAVSGLGFSGPIMGWYRQAPGKQRELVATVTSHGTTNYADSVKGRFTISRDNAKETVYLQMNSLRPEDTAVYYCNAHFPGIYWGKGTLVTVSS
Take B18: in test [1], the off-rate (koff) came to 0.0259 s⁻¹ and the “nm (Fold wt)” value amounted to 2. In test [2], the dissociation rate constant (koff) is 0.00346 s⁻¹ and the “nm (Fold wt)” value came to 2.1.

B19: 2HFO9(G54H)-NT (VHH)
VHH: QVQLQESGGGLVQAGGSLRLSCAASGSGFSGMIMGWYRQAPGKQRELVATITSHGTTNYADSVKGRFTISRDNAKNTVLLQMNSLKPEDTAVYYCNAHFPGIYWGKGTQVTVSS
notes: as for B3
For B19, in test [3], the “Fold hu/ms (koff)” value amounted to 6, the “Fold to WT (koff)” value came to 0.6 and the koff was 0.0133 s⁻¹. In test [4], the “Fold to 2HF042 (koff)” value stood at 1, the “Fold to WT (koff)” value worked out at 0.3 and the dissociation rate constant (koff) came out at 0.00215 s⁻¹.

B20: P01500014: P0150001 with M32P (VHH)
VHH: EVQLVESGGGLVQPGGSLRLSCAASGSGFSGPIMGWYRQAPGKQRELVATVTSHGTTNYADSVKGRFTISRDNAKNTVYLQMNSLRPEDTAVYYCNAHFPGIYWGKGTLVTVSS
notes: Entry carries a His6 tag
Regarding B20, the off-rate constant (koff) in test [1] worked out at 0.0255 s⁻¹; in test [2] it was 0.00241 s⁻¹. The “nm (Fold wt)” value in test [1] came out at 2; in test [2] it was 1.5.
